Laboratory results taken from the supplement of paper PMC12042874.
± gives the uncertainty stated by the source.

Assay: amyloid nucleation score (Sup35N fusion, yeast selection) (log enrichment); library NNK2; higher = more nucleation; inactive = no reads after selection
Summary of the method: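 DiMSum was used to calculate nucleation scores as log enrichment of output over input reads, centred on the mode score of non-aggregating sequences. Sequences with fewer than 100 input reads were not scored. Input and output came from Illumina sequencing of plasmid inserts in psi-negative yeast expressing peptides of 20 random codons fused to Sup35N, induced 24 hours with 100 μM copper sulfate and then grown 7 days at 30°C on medium lacking adenine and uracil.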

Substance	amyloid nucleation score
IVSCFTRVN	5.26 ± 0.059
TSNCS	0.579 ± 0.3
WNGQDGQGLVGLKRP	0.344 ± 0.23
EGRHNV	inactive
FGIHHCLVCRLNLDFISGVD	-0.877 ± 0.62
LTYNISQCYILFFVYITGHD	inactive
EGSNNVVVRDSAVYQVSGEM	-0.375 ± 1.1
GLSAKNH	0.279 ± 0.39
TVGIAKKNMVR	0.503 ± 0.43
CQRTTGALTSGWKPDDIGSV	0.192 ± 0.46
ATQVMMGVAEYACLYNCTHM	8.223 ± 0.078
LNGCGVLRPVR	5.89 ± 0.067
RGYLTAT	-0.134 ± 0.53
IFYSSLALVWLYNLMDRECT	2.18 ± 0.17
CSVYVCQLSLCCSVY	6.426 ± 0.06
SNAVLWNTGIFIKKYC	-1.38 ± 0.64
ELCPAT	0.219 ± 0.3
HLGHKKVRWDMSAELWQ	2.75 ± 0.1
RRFLNGFFRVQRLRYRHPFI	-0.005 ± 0.63
VIPYILTCWVYFIDCLWRRK	0.948 ± 0.66
NFDGSCKA	-0.853 ± 1.1
FFKGLSKSIQVGL	-1.06 ± 0.56
CINYG	0.96 ± 0.39
WDNHYRIKYCG	inactive
FSLEMTLFWPVFRLCPISSL	0.606 ± 0.66

Substance	amyloid nucleation score
KSSVELWTFERA	1.14 ± 0.33
EWCQKGSAEIRASRCQ	0.58 ± 0.18
FAIHLKLMYVGTDFSNVRDI	-1.15 ± 0.76
WNFFLGMAIMGLRRSCL	4.1 ± 0.068
GEAFRKDPLRCYMFQGIIEQ	2.1 ± 0.14
FSRWVVVLVVQLWSLALRSN	0.369 ± 0.65
IWRNSANCGASDEAVDSLR	0.53 ± 0.56
AFYMIRH	3.66 ± 0.076
LYLVEARVTLYILGPWVVSR	0.927 ± 0.45
GWCRYLKDLYI	-1.1 ± 0.36
QKMRPNIKVFVYKNVGYNWC	8.562 ± 0.054
GYAYLSLHKA	0.342 ± 0.2
VLNDFFWEHLPMGHNVGLTL	-0.252 ± 0.55
KAWLSSKITKM	0.131 ± 1
MFHLRSNVMPTGLVRTPMLL	1.54 ± 0.44
DNCLASVFINVKEFSHLCLW	-0.451 ± 0.79
SLLSPHPLD	0.203 ± 0.63
FYFCF	7.59 ± 0.03
RLGIFYKVDLSLVGKVPNST	2.79 ± 0.17
QSLSSYHLNFSALRSVPWP	0.043 ± 0.38
QWLKTVSLS	0.449 ± 0.8
SSLCIRSAL	-0.092 ± 0.63
TNKYFCTFGAHGARDLQMHV	inactive
HHFNCCTGNFYIYKLDDSLI	5.485 ± 0.048
YPPWVSGVMIVMGHLRRCSA	1.93 ± 0.43

Substance	amyloid nucleation score
SQHSVARIANGLLTSGTMVL	0.875 ± 0.36
DSASNVW	0.553 ± 0.37
ILHPADQNSCT	-1.26 ± 0.34
VFNWTNLHYLMAQESVMGY	0.148 ± 0.35
WCTIHYDLMLVVRTNSSRSI	1.08 ± 0.18
TEIKSCKDNTHVHMHSLIRA	0.384 ± 0.43
DVHHRIIMMLLGGFWYACGY	-0.428 ± 0.27
YNCLACARVKWKSVCGRMSC	0.388 ± 0.32
YIPCDKANRSFENC	1.19 ± 0.35
YSSAGGHRLMGMGRIRYKTG	0.026 ± 0.56
YVLFLVRWRVNRV	2.19 ± 0.11
CGFSWCIDQLGTCLCKMVVV	-0.269 ± 0.28
TRGNM	0.63 ± 0.39
LHIESRLRRSSQEKSN	0.012 ± 0.45
CLKAFIWLRRLEGQI	0.082 ± 1.1
RVLKLCRLCHFKYLTSEAGV	-0.309 ± 0.34
KHGSMVICKPAIYTVLT	-0.021 ± 0.63
CSPYVRSCTGYVEWGSIRTM	0.06 ± 0.29
SNVLFLVLHRGRVKAVSRNE	-0.783 ± 1
ITAGVPVFYL	-1.22 ± 1.1
RAVDDYRE	0.88 ± 0.3
NLVFCFDFQMSAPISGEMQY	4.87 ± 0.098
KLFFTDGFLYGNPLLSDGLD	-0.58 ± 0.39
SLKRKGLVHTPCIFRVRCLT	0.554 ± 0.81
GCTSTRRLVYC	-0.622 ± 0.29

Substance	amyloid nucleation score
FCDVQDFAVLSGVELLNLSY	-0.751 ± 0.39
SSIKSSKIGAGGSL	-0.213 ± 0.79
YFTSGNDDSVFDVYRSIWMV	2.91 ± 0.13
TTFMRVVLFAPVLYMYGKNR	5.492 ± 0.043
KTLRCQRMVGYWGIRVDLGR	1.31 ± 0.42
VWLTMKVAILPCSQRIEKMV	1.47 ± 0.38
MFAVLSLDRGYHKAR	-0.205 ± 0.55
HWKAFYL	1.13 ± 0.59
MFGNTGLTSYYALTGTRWLY	-0.487 ± 0.79
SIYRFDLTYPNRHHCYNVVI	-0.184 ± 1.1
ICSCTGTYVVRNRMTGTL	-0.786 ± 0.49
TSERRLNYTCCNYWYMG	9.053 ± 0.04
FHMVIGWYICLICNGFYTFF	inactive
CRGTQALSYSLS	-0.017 ± 0.76
NYSVWVIPVFMDEHIVLFMY	5.8 ± 0.071
LKCVHCYIRHLNFYFILPLC	inactive
RRTSYLCWFAGYFGLI	-0.295 ± 0.45
CSLMNNRVHFVWSHRRMSGT	0.276 ± 1
WHGRCWTSAKLAYRTRKTMC	1.86 ± 0.17
NISGATMEVVIYHDAVCESN	-0.361 ± 0.63
VRLHGLLHANMGKTFMLLLS	-0.486 ± 0.56
IWLTVVESRFVTGVVGECYW	0.255 ± 0.45
LWSEGMTLASADCR	0.721 ± 0.22
YSNSDTAMSLGARLAYGVL	5.379 ± 0.05
VTFLGDIRYFRCWCL	9.561 ± 0.077

Substance	amyloid nucleation score
TVMYSGVG	0.501 ± 0.46
LAFMRLPAVVLSSTLSFMKS	0.789 ± 0.66
SKLFESLVTCLIKGLHVVNN	0.479 ± 0.74
YPPSVLFVSALHQVGTMSGG	0.003 ± 0.3
KSVASVMVYYALRIPYHIEC	inactive
TTCDNEREGTLKYVNVCCNL	5.42 ± 0.045
IWEVNKVIIQYFPIAFKK	5.713 ± 0.05
DLRLYILNL	6.556 ± 0.055
GPCMMEGLIYREMSAGYTTV	0.416 ± 0.49
IRYLYAMVLMDVNDGRYYCK	-1.54 ± 1
VQRYRVFVAICFCGEMQRGF	inactive
NYTNVRERGYMRVEYDMSIT	0.202 ± 0.56
VLHCHWTGFSRSTCVHLVHF	3.63 ± 0.084
WIWVMWNKLCDSPDVWLANW	0.816 ± 0.51
LVSYV	-0.873 ± 0.76
SYVGICGAMNLCSETVSCMV	-0.977 ± 0.41
SDICRREMHNTAIFLALF	1.56 ± 0.1
LMFCIENLAVMESELMGSCR	0.464 ± 0.62
DMWQGEFKLGPRFSDENSQF	-0.172 ± 1.1
IRGSSIEKNRMWHVGLSLTW	-0.809 ± 1.1
VHSLFVNIRMLCTDGFASTG	4.479 ± 0.038
FGPSRYTRSVFSVEQTSL	-0.114 ± 1
HGSQRFDFWGGYRYW	0.83 ± 0.13
FLWVLIQANYLLTEMELSSG	-0.447 ± 1.1
WVTGPSRPD	0.387 ± 0.8

Substance	amyloid nucleation score
FLGWPGIRQCLLFVANNRGR	-0.448 ± 0.76
VLWNKSALNSKNSRTG	2.57 ± 0.1
FVDWVMCIVMYVRLR	-0.87 ± 0.41
SNWFLWHTSTRFMIKENIMY	0.516 ± 0.74
CRVALSVVYHTINEKQWYRV	-0.988 ± 0.28
DSNTPHASMRYISFKRFFFV	-0.107 ± 1
KNCFMIV	-2.26 ± 1
SRTSSKAYTPYFVSRGHDRY	-0.903 ± 0.76
IWIKNTSLLLLCRLSHCHNI	inactive
VHQRYRSVRCWNWIVM	-0.545 ± 0.48
SMWWY	-0.505 ± 1.1
SCKKCMSYVVVVNIVRHICM	1.86 ± 0.11
AMFTSSMIRTLGCCSGSQTA	4.14 ± 0.13
GIRLGSNDQSVYSRPNV	1.46 ± 0.35
YNILVK	-0.622 ± 0.43
NYKRFCSCMLDH	-0.665 ± 0.63
TYIQPVARRKHLA	0.101 ± 0.39
ANSVCDNVVTVSLLRLYMVL	5.39 ± 0.071
GCCWEKSASRSAETYWSGRA	3.06 ± 0.14
CELRIFTCHDSCAVLDRWME	1.16 ± 0.18
TDVIYYGYLSRRLQVYVLPS	-1.55 ± 1.1
STFLKATYRSHRRHW	0.962 ± 0.39
VLTLPKRNHVHL	0.874 ± 0.35
NLYAPGSIYSASFFRVMTLG	-1.04 ± 0.48
VEFLPCLSIYSACFSLDGST	-1.37 ± 0.44

Substance	amyloid nucleation score
VYNTFLREFHS	1.99 ± 0.13
GYDIISQKLGIQSYQKCTFI	-1.86 ± 0.62
LYTMNLHYFLLFEESVS	-0.835 ± 0.28
LDGFLLSISLRINKRLSSGR	4.79 ± 0.061
ETHYPPQ	0.033 ± 0.32
MGVLWMFFSF	0.03 ± 0.4
YWLECILSGVYHDGYDSYSL	inactive
LARYFAKKLYNFYFLAFTGW	1.14 ± 0.29
HNGSNFGTWSQGSLRHVRAR	-0.023 ± 0.31
YKWWDLCLNFPCGRLKAQPR	1.28 ± 0.25
SLSVAWKWGGRSDN	6.213 ± 0.06
NGPVQIASGGRRVPLLWEVL	0.098 ± 0.79
DCNVWSSSERKVLSRGTSDF	-0.193 ± 0.31
QLWSAWWHTVKKTGRRWWHR	0.921 ± 0.19
LLIFNGLYGWAIGDGLPSSW	5.09 ± 0.051
VFRISLRSSLYML	4.13 ± 0.099
YFKTWAICHWFCNWRRLWMN	0.305 ± 1
MNLAVGWSHSPDQDLYYPML	-0.339 ± 0.56
LVLIFMDLSTGWLLSSISDI	2.33 ± 0.066
DGFSYDPFSMVSIVVRFVVG	0.99 ± 0.32
SFITDRADCRQWLLRNNIFA	-0.771 ± 0.64
VWELDRVVR	0.783 ± 0.53
